Laboratory results taken from patent publication US9113649B2, “Food additive comprising an amidase for detoxifying ochratoxin” (DuPont Nutrition Biosciences ApS, priority 2010, dated 2015).
Read-outs that look alike come from different tables or passages of the source.

Experiments:
[1] = rat, in vivo; cited from earlier work
[2] = type: biochemical; conditions: for ability to degrade ochratoxin A: enzyme screen, 20 h
Experimental: Activity was expressed in % OT-α (product of OTA) area: the area corresponding to the product divided by the total area (peak area of OTA plus OT-α).
The buffers employed in the assay were: 50 mM sodium acetate buffer (pH 4, 4.5, 5 and 5.5); 50 mM MES buffer (pH 6, 6.5 and 7); 0.2M Mops-NaOH) pH7.0), 50 mM Tris-HCl buffer (pH 7.5, 8 and 8.5). Ochratoxin A (OTA) solution (1 mg/mL) was made of 5 mg ochratoxin A (Sigma, ref. 32937) dissolved in ethanol/water (60/40) and stored at −20° C. Screening assays were performed with […] OTA solution and different enzyme concentrations (for example, 0.1-5 mg/ml) in a final volume of 300 μL. Enzymatic reactions were done at 37° C. for 20 h±1 h under constant agitation. Samples were filtered using syringe filter 0.20 μm for HPLC analysis. The HPLC apparatus consisted of a Dionex P580 pump and Dionex ASI-100 autosampler connected to a Dionex RF-2000 fluorescence detector (λex=333 nm; λem=460 nm) and a Dionex UVD340 U UV detector at 257 nm. Elution was through a nucleosil 100-5 C18 column (250×4.6 mm, 5 μm particle size; Chrompack) with water/acetonitrile/acetic acid (100:100:1, v/v/v) at a 0.6 mL/min flow-rate. The column was kept at 30° C. and was connected to guard column (C18, 1 mm, Optimize technologies). The OTA and its degradation products were monitored both by uv at 235 nm and fluorescence (excitation at 278 nm emission at 440 nm).
Thirty enzymes including various lipases, proteases and amdiases were investigated for their ability to degrade ochratoxin A (Table 1). […] To facilitate the comparison of these three enzymes, the protein concentration of PEPAd was determined and enzyme solutions of carboxypeptidase A and Amano™ lipase A were prepared at the same concentration (1 mg/ml). A kinetic of the degradation was carried out (FIG. 1). […] Amano™ lipase A product was a mixture of different enzymes with the dominant activity being lipase. […] Other proteases, lipases and amidases listed in Table 1 were not able to break OTA down (data not shown).

[3] = activity of three fungal amidases on ochratoxin A (intracellular cell-free fraction); type: biochemical; conditions: for Activity on ochratoxin A expressed as ochratoxin A peak area: remaining OTA, 20 μl intracellular cell-free fraction, pH7, 23° C., 17 h
Experimental: The reaction mixture using OTA as substrate consisted of 75 μl phosphate (67 mM, pH7), 5 μl OTA (2.4 μg/ml) and 20 μl intracellular cell-free fraction. The reaction was performed at 23° C. for 17 h and stopped by adding 0.15 ml acetonitrile and analyzed on HPLC with an injection volume of 5 μl.

[4] = Abrunhosa et al., Toxins 2010; cited from earlier work

Molecule	ability to degrade ochratoxin A ([2]; 37° C.)	Activity on ochratoxin A expressed as ochratoxin A peak area [3]	other results
C[C@@H]1Cc2c(Cl)cc(C(=O)N[C@@H](Cc3ccccc3)C(=O)O)c(O)c2C(=O)O1 [OTA, ochratoxin A]			elimination half-time in the body [1]: 103 h
C[C@@H]1Cc2c(Cl)cc(C(=O)O)c(O)c2C(=O)O1 [ochratoxin α]			elimination half-time in the body [1]: 9.6 h
porcine elastase: serine protease elastase from porcine pancreas (Sigma E0258) [reference compound]	showed certain activity with OTA		
amidase from Aspergillus oryzae: hypothetical protein from Aspergillus oryzae (XP_001826758) expressed intracellularly in Aspergillus niger (protein, listed as Aspergillus oryzae) MHRMLTDDRLYRVDADLLIPGKGDPIPHGAVVWQCKTIRYAGPRSGVPTEFQGATTTHVPVVMPGMWDCHIHFLGATAATMNAIVDTPQALAGARSVPDLHATVMAGFTSVREVGGYGCDLAKAVGEGRIPGPNIYSSHSAISMTAGHGDVHGVHRDSLLDLCAHGLPLTIADGVPECLLAVRKQLRRGAKVIKVCASGGVVSAIDDPQHQEFSFEELKAIVDEAARARRVVAAHCHGKAGIMNALRAGCRTIEHGSFLDEEAVGLMKEKGAILVATRSVIESGLAMKDLFTPSSYQKLLAVADAHRKAYQLAISRGVTIALGTDQFISSDNPMIGYGRNGHEVRYAVDAGLTPLAAIEAATANGPLTLGYQAPQSGQLKEGYDADIIAVRENPLENVAVLSNSKNVTHVWRGGMLIKS		8.57	
amidase from Glomerella graminicola: putative amidohydrolase from Glomerella graminicola (EFQ25792) expressed intracellularly in Trichoderma reesei (protein, listed as Glomerella graminicola) MGGSFRPNYADGPEPPFSPTKKTTLVIIKTSLLIPGDGEPLKDGALVISSKVIAWVGPQSSLPSEYADSPHRSYTVPYLMPGLWDCHAHFGGESPNDDGGNDPYQVFITEHPAASGARLTRGCWLALQRGYTSLRDVAGLGCEVSRAIEDGSIVGPNVYSSGSGLSQLAGHGDIFSLPAGDVLLNLGVSQITPGHFGTHATMIVDGVDECRRAVRLQIRRGAKCIKVMASGGVMSRDDNPNYAQFSAAELETIVEEATRQNRVVAAHVHGKAGILAAINAGVTTLEHASFADRECIDLIKEKGIVYIATRIVVHLLLSTGGKGLPPTVWEKAKLVAKNHMTAYKMAIESGVQIALGTDTGPGYNMATELECAVEAGMSNLEAIKAATANGPLSVGGQAPKTGQLKVGYEADVIGLLQNPVEDVKVLQKVDNVGWVWKGGKLFKGPGVGPWGEEPGVWEDITGVSRLRCTTGY		0.68	
carboxypeptidase A: Carboxypeptidase A from bovine pancreas (Sigma) (protein, listed as Bos taurus) MQGLLILSVLLGAALGKEDFVGHQVLRITAADEAEVQTVKELEDLEHLQLDFWRGPGQPGSPIDVRVPFPSLQAVKVFLEAHGIRYRIMIEDVQSLLDEEQEQMFASQSRARSTNTFNYATYHTLDEIYDFMDLLVAEHPQLVSKLQIGRSYEGRPIYVLKFSTGGSNRPAIWIDLGIHSREWITQATGVWFAKKFTEDYGQDPSFTAILDSMDIFLEIVTNPDGFAFTHSQNRLWRKTRSVTSSSLCVGVDANRNWDAGFGKAGASSSPCSETYHGKYANSEVEVKSIVDFVKDHGNFKAFLSIHSYSQLLLYPYGYTTQSIPDKTELNQVAKSAVEALKSLYGTSYKYGSIITTIYQASGGSIDWSYNQGIKYSFTFELRDTGRYGFLLPASQIIPTAQETWLGVLTIMEHTLNNLY	able to breakdown OTA		conversion of OTA ([2]; after 7 h reaction at 37° C., enzyme 1 mg/ml): full conversion of OTA was obtained; ochratoxin degrading activity [4]: low ochratoxin degradding activity
amidase from Metarhizium anisopliae: putative amidohydrolase from Metarhizium anisopliae (EFZ00058) expressed intracellularly in Trichoderma reesei (protein, listed as Metarhizium anisopliae) MTRRVIPHSESAESVDDAQHVSGRIYSTGFGIAVRTGQPQSQDDDAETGVKKVFYTIVMTKLLIPGDGEPIKDAALVVKNKIIDWVGRQADLPNEYTEKPHKLHNVPYLMPGLWDCHVHFAGSNGEREAEEGSTGLSFLADHPTTAGARLARGCWDAIQRGYTSMRDLAGFGCEISKAIEDGVIIGPNIYSAGACLSQLAGHGDVFALPAGDALLNLGLASVKAGQFGAGMSCLVDGVDECRRGVRLQIRRGAKCIKVMASGGVLSRDDNPLYAQFSREELDTIVSEAKRMERTVAAHVHGKPGILQAVEAGVTSVEHVSFADQECIDLIKDRGTIFVGTRTIVNLLLDSKGEGMPKKMWEKAKLVGTHSLEGYKKAIKAGCTIALGTDTEPGFNMAIELQYAVEAGMSSLEAIKAATANGPLTVAGQAPLTGQLKAGYEADMIGVCDNPVEDVKVLQKKSNIGWVWKGGKLFKGPGIGPWGEEL		0.96	activity in degrading ochratoxin A (in words) [3]: showed activity in degrading ochratoxin A
yeast carboxypeptidase Y: Carboxypeptidase Y from baker's yeast (Saccharomyces cerevisiae) (protein, listed as Saccharomyces cerevisiae) MKAFTSLLCGLGLSTTLAKAISLQRPLGLDKDVLLQAAEKFGLNLDLDHLLKELDSNVLDAWAQIEHLYPNQVMSLETSTKPKFPEAIKTKKDWDFVVKNDAIENYQLRVNKIKDPKILGIDPNVTQYTGYLDVEDEDKHFFFWTFESRNDPAKDPVILWLNGGPGCSSLTGLFFELGPSSIGPDLKPIGNPYSWNSNATVIFLDQPVNVGFSYSGSSGVSNTVAAGKDVYNFLELFFDQFPEYVNKGQDFHIAGESYAGHYIPVFASEILSHKDRNFNLTSVLIGNGLTDPLTQYNYYEPMACGEGGEPSVLPSEECSAMEDSLERCLGLIESCYDSQSVWSCVPATIYCNNAQLAPYQRTGRNVYDIRKDCEGGNLCYPTLQDIDDYLNQDYVKEAVGAEVDHYESCNFDINRNFLFAGDWMKPYHTAVTDLLNQDLPILVYAGDKDFICNWLGNKAWTDVLPWKYDEEFASQKVRNWTASITDEVAGEVKSYKHFTYLRVFNGGHMVPFDVPENALSMVNEWIHGGFSL	showed certain activity with OTA		ochratoxin degrading activity [4]: low ochratoxin degradding activity
PEPAd: a Danisco aspartic acid protease cloned from A. niger (protein, Aspergillus niger) MHLPQRLVTAACLCASATAFIPYTIKLDTSDDISARDSLARRFLPVPNPSDALADDSTSSASDESLSLNIKRIPVRRDNDFKIVVAETPSWSNTAALDQDGSDISYISVVNIGSDEKSMYMLLDTGGSDTWVFGSNCTSTPCTMHNTFGSDDSSTLEMTSEEWSVGYGTGSVSGLLGKDKLTIANVTVRMTFGLASNASDNFESYPMDGILGLGRTNDSSYDNPTFMDAVAESNVFKSNIVGFALSRSPAKDGTVSFGTTDKDKYTGDITYTDTVGSDSYWRIPVDDVYVGGTSCDFSNKSAIIDTGTSYAMLPSSDSKTLHSLIPGAKSSGSYHIIPCNTTTKLQVAFSGVNYTISPKDYVGATSGSGCVSNIISYDLFGDDIWLLGDTFLKNVYAVFDYDELRVGFAERSSNTTSASNSTSSGTSSTSGSTTTGSSTTTTSSASSSSSSDAESGSSMTIPAPQYFFSALAIASFMLWL	showed an OTA converting activity although this was less efficient		conversion of OTA ([2]; after 1 day reaction, 37° C., same protein concentration (1 mg/ml)): full conversion was not reached
